In paper PMC12325948, “14-3-3 binding maintains the Parkinson’s associated kinase LRRK2 in an inactive state” (Nature Communications, 2025):

What was measured:
[1] = target: endogenous 14-3-3 (detected with anti-pan-14-3-3) (UniProt P61981); test: Co-IP
[2] = target: Full-length human LRRK2 (Uniprot Q5S007 with R85H mutation), N-terminal 3X-FLAG, purified (human) (UniProt Q5S007); test: SEC + other: mass photometry; LRRK2 dimers isolated by gel filtration and confirmed by mass photometry
[3] = target: N-terminal His-tagged 14-3-3γ (Uniprot P61981) (UniProt P61981); test: MST; settings: parent: est. 210 nM, read off a plot
[4] = target: Flag-tagged LRRK2 WT expressed in HEK293FT cells (human) (UniProt Q5S007); test: co-IP; HEK293FT cells transfected with WT or mutant Flag-tagged LRRK2, FLAG-M2 resin, elution with 3X-FLAG peptide, blot with anti-pan-14-3-3; ratio of endogenous 14-3-3 to LRRK2; in one panel cells treated with MLi-2 or Rebastinib
[5] = target: Flag-tagged LRRK2 R1728H expressed in HEK293FT cells (human) (UniProt Q5S007); test: as above
[6] = target: LRRK2 mutants at the secondary interface (COR residues) in the Co-IP of Fig. 2d; test: as above
[7] = target: Full-length human LRRK2 (Uniprot Q5S007 with R85H mutation), N-terminal 3X-FLAG, purified, Q5S007; test: MST; settings: chain shown with the change; right graph; 14-3-3 Variants; parent: est. 210 nM; read off a plot
[8] = target: Full-length human LRRK2 (Uniprot Q5S007 with R85H mutation), N-terminal 3X-FLAG, purified (human) (UniProt Q5S007); test: cryo-EM structure; LRRK2 monomer fraction at 50 mM NaCl with at least 60-fold molar excess of 14-3-3γ, cross-linked with 1 mM BS3, Superose 6; map at 3.96 Å, local refinement 3.87 Å
[9] = target: Full-length human LRRK2 (Uniprot Q5S007 with R85H mutation), N-terminal 3X-FLAG, purified (human) (UniProt Q5S007); test: MST; LRRK2 labelled with RED-NHS 2nd generation at 40 nM, 14-3-3 titrated from a 485 µM stock in 1:2 dilutions, 25 °C for 1 h, 1:1 binding model
[10] = target: Purified LRRK2 mutants on the LRRK2 side of the COR:14-3-3_(2) interface (MST, Fig. 2e right); test: as above
[11] = target: Full-length human LRRK2 (Uniprot Q5S007 with R85H mutation), N-terminal 3X-FLAG, purified (human) (UniProt Q5S007); test: SEC-MALS; pre-formed dimeric LRRK2 at 130 nM without and with 14-3-3γ at 1 to 100 times that of LRRK2, Superose 6 Increase 15/150, gel filtration buffer
[12] = target: Purified LRRK2 mutated at the primary interaction residues S910/S935 (human) (UniProt Q5S007)
[13] = target: the molecule itself; test: cryo-EM structure; LRRK2 monomer fraction at 50 mM NaCl with at least 60-fold molar excess of 14-3-3γ, cross-linked with 1 mM BS3, Superose 6; map at 3.96 Å, local refinement 3.87 Å
[14] = target: Full-length human LRRK2 (Uniprot Q5S007 with R85H mutation), N-terminal 3X-FLAG, purified (human) (UniProt Q5S007); test: MST; as a3 with the type I kinase inhibitor MLi-2 at 2 uM
[15] = target: Full-length human LRRK2 (Uniprot Q5S007 with R85H mutation), N-terminal 3X-FLAG, purified (human) (UniProt Q5S007)
[16] = target: Purified LRRK2 mutated at the secondary interaction residue R1728 (mutant with reduced inhibition) (human), Q5S007
[17] = target: Purified LRRK2 mutated at the secondary interaction residue L1727 (human), Q5S007
[18] = target: Purified LRRK2 mutated at the secondary interaction residue N1730 (human), Q5S007
[19] = target: Purified LRRK2 R1441G (human), Q5S007
[20] = target: Purified LRRK2 R1728H (human), Q5S007
[21] = target: Purified LRRK2 R1628P (human), Q5S007
[22] = left graph, Flag-tagged LRRK2 and endogenous 14-3-3, n = 3, parent: est. 1.0, read off a plot
[23] = in cells, n = 3, parent: est. 1.0, read off a plot
[24] = right graph, Flag-tagged LRRK2 and endogenous 14-3-3, n = 3, parent: est. 1.0, read off a plot

Chain of Full-length human LRRK2 (Uniprot Q5S007 with R85H mutation), N-terminal 3X-FLAG, purified, Q5S007 (Q5S007 other isoform, or with tags, fused parts or gaps R85H): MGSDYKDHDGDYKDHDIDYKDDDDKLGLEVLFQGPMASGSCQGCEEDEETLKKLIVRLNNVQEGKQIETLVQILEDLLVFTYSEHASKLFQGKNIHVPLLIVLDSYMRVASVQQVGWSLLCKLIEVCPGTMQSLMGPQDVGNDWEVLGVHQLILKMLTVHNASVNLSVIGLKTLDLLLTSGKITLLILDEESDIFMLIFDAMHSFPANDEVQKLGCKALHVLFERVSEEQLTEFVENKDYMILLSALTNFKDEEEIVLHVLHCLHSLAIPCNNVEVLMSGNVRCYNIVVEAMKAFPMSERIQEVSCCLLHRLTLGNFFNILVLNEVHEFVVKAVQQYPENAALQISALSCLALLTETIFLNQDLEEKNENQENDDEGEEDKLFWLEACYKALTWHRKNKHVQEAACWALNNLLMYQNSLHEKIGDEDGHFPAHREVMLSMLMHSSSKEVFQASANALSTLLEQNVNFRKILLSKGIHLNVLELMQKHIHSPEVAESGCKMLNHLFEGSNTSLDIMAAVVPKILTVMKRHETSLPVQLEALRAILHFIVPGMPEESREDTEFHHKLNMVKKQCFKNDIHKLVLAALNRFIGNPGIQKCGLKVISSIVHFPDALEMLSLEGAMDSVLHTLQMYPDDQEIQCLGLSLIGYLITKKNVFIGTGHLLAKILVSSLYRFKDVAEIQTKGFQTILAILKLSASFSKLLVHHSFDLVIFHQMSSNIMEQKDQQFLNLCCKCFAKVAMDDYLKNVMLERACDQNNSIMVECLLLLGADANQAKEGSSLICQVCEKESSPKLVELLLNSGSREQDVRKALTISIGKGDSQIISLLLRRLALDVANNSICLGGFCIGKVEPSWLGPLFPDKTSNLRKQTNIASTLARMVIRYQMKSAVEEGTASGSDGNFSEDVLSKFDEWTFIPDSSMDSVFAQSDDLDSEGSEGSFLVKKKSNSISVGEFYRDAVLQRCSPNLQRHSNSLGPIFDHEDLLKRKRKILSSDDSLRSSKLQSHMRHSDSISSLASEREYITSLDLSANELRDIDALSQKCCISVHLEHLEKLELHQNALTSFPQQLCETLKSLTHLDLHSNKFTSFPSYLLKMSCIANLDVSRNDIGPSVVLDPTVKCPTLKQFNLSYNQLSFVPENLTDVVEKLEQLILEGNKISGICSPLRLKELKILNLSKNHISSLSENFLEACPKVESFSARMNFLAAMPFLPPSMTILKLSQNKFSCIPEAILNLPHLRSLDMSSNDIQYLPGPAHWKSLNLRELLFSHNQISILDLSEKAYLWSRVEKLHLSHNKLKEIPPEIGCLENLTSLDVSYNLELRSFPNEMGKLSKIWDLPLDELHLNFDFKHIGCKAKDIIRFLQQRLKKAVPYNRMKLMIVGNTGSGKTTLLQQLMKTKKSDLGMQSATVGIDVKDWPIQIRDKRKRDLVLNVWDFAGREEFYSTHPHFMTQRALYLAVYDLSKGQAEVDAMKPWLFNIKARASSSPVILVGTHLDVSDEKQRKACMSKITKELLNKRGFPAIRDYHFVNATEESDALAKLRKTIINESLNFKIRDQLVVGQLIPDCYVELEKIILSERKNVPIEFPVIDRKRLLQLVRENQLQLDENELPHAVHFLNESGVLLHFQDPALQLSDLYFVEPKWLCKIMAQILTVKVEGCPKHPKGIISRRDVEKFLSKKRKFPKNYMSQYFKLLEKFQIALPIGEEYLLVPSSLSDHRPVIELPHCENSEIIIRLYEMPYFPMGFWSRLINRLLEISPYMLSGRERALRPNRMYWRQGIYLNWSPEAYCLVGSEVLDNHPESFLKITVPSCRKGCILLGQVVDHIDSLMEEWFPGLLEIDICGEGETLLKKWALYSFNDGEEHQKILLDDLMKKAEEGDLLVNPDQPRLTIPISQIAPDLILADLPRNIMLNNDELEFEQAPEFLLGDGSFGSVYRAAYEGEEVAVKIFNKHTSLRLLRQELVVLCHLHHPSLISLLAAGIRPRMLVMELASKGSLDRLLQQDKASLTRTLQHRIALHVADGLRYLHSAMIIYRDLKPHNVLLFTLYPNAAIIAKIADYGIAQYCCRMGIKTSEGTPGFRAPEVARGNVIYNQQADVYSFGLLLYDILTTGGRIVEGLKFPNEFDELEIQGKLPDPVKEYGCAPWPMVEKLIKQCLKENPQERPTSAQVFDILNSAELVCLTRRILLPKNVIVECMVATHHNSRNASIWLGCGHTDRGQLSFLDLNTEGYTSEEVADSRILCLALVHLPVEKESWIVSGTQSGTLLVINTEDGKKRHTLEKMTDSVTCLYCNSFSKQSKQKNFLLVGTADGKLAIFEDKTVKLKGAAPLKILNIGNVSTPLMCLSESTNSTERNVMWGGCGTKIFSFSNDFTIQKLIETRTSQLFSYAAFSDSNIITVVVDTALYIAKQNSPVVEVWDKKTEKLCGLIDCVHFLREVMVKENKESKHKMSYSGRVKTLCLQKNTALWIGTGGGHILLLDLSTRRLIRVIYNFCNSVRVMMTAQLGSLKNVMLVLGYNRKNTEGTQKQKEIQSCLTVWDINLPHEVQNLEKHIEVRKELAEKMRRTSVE
Chain of Purified LRRK2 R1628P (human), Q5S007 (Q5S007 whole entry R1628P): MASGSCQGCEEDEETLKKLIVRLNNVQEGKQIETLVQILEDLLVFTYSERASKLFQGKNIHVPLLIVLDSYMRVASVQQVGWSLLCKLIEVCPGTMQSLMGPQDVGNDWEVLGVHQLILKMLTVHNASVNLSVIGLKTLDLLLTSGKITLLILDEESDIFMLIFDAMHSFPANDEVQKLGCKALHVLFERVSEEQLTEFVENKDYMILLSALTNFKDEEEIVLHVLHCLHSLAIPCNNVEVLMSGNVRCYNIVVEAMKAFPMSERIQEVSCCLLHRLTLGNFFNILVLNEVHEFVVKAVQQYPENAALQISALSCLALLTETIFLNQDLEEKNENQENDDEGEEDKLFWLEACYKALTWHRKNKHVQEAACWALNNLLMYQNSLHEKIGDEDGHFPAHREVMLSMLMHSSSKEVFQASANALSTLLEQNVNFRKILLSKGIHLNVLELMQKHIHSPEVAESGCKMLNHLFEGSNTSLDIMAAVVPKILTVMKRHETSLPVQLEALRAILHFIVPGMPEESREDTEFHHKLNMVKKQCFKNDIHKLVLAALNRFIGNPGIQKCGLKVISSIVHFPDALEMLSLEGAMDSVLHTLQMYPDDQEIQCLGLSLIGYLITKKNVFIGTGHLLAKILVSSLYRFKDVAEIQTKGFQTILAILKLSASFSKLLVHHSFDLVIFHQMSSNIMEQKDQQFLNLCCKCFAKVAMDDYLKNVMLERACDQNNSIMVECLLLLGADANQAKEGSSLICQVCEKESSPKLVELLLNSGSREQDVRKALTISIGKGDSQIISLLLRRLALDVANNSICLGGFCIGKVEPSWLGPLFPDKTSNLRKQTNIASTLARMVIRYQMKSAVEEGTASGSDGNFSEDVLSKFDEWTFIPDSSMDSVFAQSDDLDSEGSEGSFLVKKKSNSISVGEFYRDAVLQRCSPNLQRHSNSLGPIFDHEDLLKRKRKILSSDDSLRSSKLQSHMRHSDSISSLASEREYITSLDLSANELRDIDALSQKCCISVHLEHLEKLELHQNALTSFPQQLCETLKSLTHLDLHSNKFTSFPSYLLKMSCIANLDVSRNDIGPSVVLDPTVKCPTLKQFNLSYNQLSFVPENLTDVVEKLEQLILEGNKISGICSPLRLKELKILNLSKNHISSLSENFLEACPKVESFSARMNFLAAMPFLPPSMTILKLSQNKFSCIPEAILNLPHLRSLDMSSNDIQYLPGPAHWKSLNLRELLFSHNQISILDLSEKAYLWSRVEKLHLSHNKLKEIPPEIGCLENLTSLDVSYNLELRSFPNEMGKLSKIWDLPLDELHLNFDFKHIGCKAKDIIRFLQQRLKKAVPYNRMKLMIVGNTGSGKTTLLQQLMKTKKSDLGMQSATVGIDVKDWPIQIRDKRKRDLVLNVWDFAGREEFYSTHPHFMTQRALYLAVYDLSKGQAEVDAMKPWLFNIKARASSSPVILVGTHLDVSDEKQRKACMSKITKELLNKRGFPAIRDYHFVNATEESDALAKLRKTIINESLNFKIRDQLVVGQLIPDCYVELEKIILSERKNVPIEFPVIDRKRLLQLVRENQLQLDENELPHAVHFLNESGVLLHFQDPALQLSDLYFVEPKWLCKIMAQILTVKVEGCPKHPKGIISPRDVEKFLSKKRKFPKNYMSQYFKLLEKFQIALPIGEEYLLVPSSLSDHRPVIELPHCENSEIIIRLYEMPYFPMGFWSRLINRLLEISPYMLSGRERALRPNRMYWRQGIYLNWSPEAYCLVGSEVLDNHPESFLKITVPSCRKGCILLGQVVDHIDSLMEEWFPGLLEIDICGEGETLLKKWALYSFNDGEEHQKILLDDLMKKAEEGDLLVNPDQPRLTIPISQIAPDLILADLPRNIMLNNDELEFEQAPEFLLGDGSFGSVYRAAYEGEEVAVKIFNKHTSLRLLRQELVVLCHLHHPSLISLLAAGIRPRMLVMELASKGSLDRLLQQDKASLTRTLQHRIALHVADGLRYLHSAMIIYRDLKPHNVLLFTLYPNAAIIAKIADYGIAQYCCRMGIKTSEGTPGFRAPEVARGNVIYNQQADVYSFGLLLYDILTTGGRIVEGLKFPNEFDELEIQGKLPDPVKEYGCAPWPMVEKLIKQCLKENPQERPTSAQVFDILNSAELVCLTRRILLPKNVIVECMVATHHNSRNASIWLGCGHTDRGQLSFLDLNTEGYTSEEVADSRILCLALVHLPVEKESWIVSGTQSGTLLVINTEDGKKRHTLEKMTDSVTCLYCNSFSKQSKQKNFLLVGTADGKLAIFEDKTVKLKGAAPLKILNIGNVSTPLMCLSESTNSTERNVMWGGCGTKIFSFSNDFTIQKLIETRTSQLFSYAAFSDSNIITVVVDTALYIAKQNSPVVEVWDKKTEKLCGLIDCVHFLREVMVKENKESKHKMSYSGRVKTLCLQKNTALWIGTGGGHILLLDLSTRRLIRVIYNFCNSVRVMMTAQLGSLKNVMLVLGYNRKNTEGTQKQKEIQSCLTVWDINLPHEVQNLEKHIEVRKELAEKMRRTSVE
Chain of Purified LRRK2 mutated at the primary interaction residues S910/S935 (human) (Q5S007 whole entry S910A/S935A): as the sequence (Q5S007 whole entry R1628P) above, with S910A, S935A, P1628R counted along it
Chain of Purified LRRK2 mutated at the secondary interaction residue R1728 (mutant with reduced inhibition) (human), Q5S007 (Q5S007 whole entry, change not shown): as the sequence (Q5S007 whole entry R1628P) above, with P1628R counted along it

With “Flag-tagged LRRK2 WT expressed in HEK293FT cells, Q5S007 E1632A” the ratio to parent [1, 22] was 0.07.

With “Flag-tagged LRRK2 WT expressed in HEK293FT cells, Q5S007 G2019S” the ratio to parent [1, 23] was 1.5.

Molecule “Flag-tagged LRRK2 WT expressed in HEK293FT cells, Q5S007 L1635A” has a ratio to parent [1, 22] of 0.11.

“Flag-tagged LRRK2 WT expressed in HEK293FT cells, Q5S007 L1727A” was tested, and the ratio to parent [1, 24] was 0.63.

“Flag-tagged LRRK2 WT expressed in HEK293FT cells, Q5S007 N1730A” was tested, and the ratio to parent [1, 24] was 0.18.

Molecule “Flag-tagged LRRK2 WT expressed in HEK293FT cells, Q5S007 R1441G” has a ratio to parent [1, 23] of 0.07.

“Flag-tagged LRRK2 WT expressed in HEK293FT cells, Q5S007 R1628P” showed a ratio to parent [1, 23] of 1.6.

“Flag-tagged LRRK2 WT expressed in HEK293FT cells, Q5S007 R1728A” gave a ratio to parent ([1]; right graph, Flag-tagged LRRK2 and endogenous 14-3-3, n = 3, marked ns against WT, parent: est. 1.0, read off a plot) of 0.98.

With “Flag-tagged LRRK2 WT expressed in HEK293FT cells, Q5S007 S910A; S935A” the ratio to parent [1, 23] was 0.02, the ratio to parent [1, 22] was 0.03 and the ratio to parent [1, 24] was 0.01.

For “Flag-tagged LRRK2 WT expressed in HEK293FT cells, Q5S007 S1636A”, the ratio to parent [1, 22] was 0.54.

For “Full-length human LRRK2 (Uniprot Q5S007 with R85H mutation), N-terminal 3X-FLAG, purified (from UniProt Q5S007 1-2527) (enzyme)”, the stoichiometry N [2] was 2.

“Full-length human LRRK2 (Uniprot Q5S007 with R85H mutation), N-terminal 3X-FLAG, purified, Q5S007 L1727A” showed a Kd ([3]; right graph, LRRK2 Variants) of 470 nM.

For “Full-length human LRRK2 (Uniprot Q5S007 with R85H mutation), N-terminal 3X-FLAG, purified, Q5S007 R1728A”, the Kd ([3]; right graph, LRRK2 Variants) was 560 nM.

With “Full-length human LRRK2 (Uniprot Q5S007 with R85H mutation), N-terminal 3X-FLAG, purified, Q5S007 S910A; S935A” the Kd ([3]; left graph, bar labelled S910/S935A) was 230000 nM.

For “endogenous 14-3-3 (detected with anti-pan-14-3-3) (from UniProt P61981 1-247) (natural protein)”, the fold decrease in co-immunoprecipitated 14-3-3 after treatment of the cells with MLi-2 [4] was 7 fold, the percent decrease in binding relative to WT [5] was 50% and the fold decrease in co-immunoprecipitated 14-3-3 [6] was 2 to 13 fold. It also gave a percent reduction in binding against WT [6] of 40 to 90%.

B1: N-terminal His-tagged 14-3-3γ (Uniprot P61981), P61981 Y216A (protein)
chain: MVDREQLVQKARLAEQAERYDDMAAAMKNVTELNEPLSNEERNLLSVAYKNVVGARRSSWRVISSIEQKTSADGNEKKIEMVRAYREKIEKELEAVCQDVLSLLDNYLIKNCSETQYESKVFYLKMKGDYYRYLAEVATGEKRATVVESSEKAYSEAHEISKEHMQPTHPIRLGLALNYSVFYYEIQNAPEQACHLAKTAFDDAIAELDTLNEDSAKDSTLIMQLLRDNLTLWTSDQQDDDGGEGNN
Molecule B1 has a Kd [7] of 680 nM.

B2: N-terminal His-tagged 14-3-3γ (Uniprot P61981), P61981 R227A (protein)
chain: MVDREQLVQKARLAEQAERYDDMAAAMKNVTELNEPLSNEERNLLSVAYKNVVGARRSSWRVISSIEQKTSADGNEKKIEMVRAYREKIEKELEAVCQDVLSLLDNYLIKNCSETQYESKVFYLKMKGDYYRYLAEVATGEKRATVVESSEKAYSEAHEISKEHMQPTHPIRLGLALNYSVFYYEIQNAPEQACHLAKTAFDDAIAELDTLNEDSYKDSTLIMQLLADNLTLWTSDQQDDDGGEGNN
Work on B2 yielded a Kd [7] of 640 nM.

B3: N-terminal His-tagged 14-3-3γ (Uniprot P61981), P61981 Q224A (protein)
chain: MVDREQLVQKARLAEQAERYDDMAAAMKNVTELNEPLSNEERNLLSVAYKNVVGARRSSWRVISSIEQKTSADGNEKKIEMVRAYREKIEKELEAVCQDVLSLLDNYLIKNCSETQYESKVFYLKMKGDYYRYLAEVATGEKRATVVESSEKAYSEAHEISKEHMQPTHPIRLGLALNYSVFYYEIQNAPEQACHLAKTAFDDAIAELDTLNEDSYKDSTLIMALLRDNLTLWTSDQQDDDGGEGNN
With B3 the Kd [7] was 490 nM.

B4: N-terminal His-tagged 14-3-3γ (Uniprot P61981) (natural protein, human)
chain: MVDREQLVQKARLAEQAERYDDMAAAMKNVTELNEPLSNEERNLLSVAYKNVVGARRSSWRVISSIEQKTSADGNEKKIEMVRAYREKIEKELEAVCQDVLSLLDNYLIKNCSETQYESKVFYLKMKGDYYRYLAEVATGEKRATVVESSEKAYSEAHEISKEHMQPTHPIRLGLALNYSVFYYEIQNAPEQACHLAKTAFDDAIAELDTLNEDSYKDSTLIMQLLRDNLTLWTSDQQDDDGGEGNN
notes: 14-3-3γ, Uniprot P61981; A TEV site follows the His tag; no cleavage is described; also called 14-3-3 gamma; 14-3-3 dimer; source: E. coli BL21*(DE3), purified (Ni-NTA, Superdex 75)
B4 was tested, and the stoichiometry N (14-3-3 dimer per LRRK2 monomer) [8] was 1, the Kd [9] was 212 nM and the fold increase in KD against the wild-type pair [10] was 2 to 3 fold. The stoichiometry N (14-3-3γ dimer per LRRK2 dimer) [11] was 1, the inhibition of Rab10 phosphorylation by LRRK2 in an in vitro kinase assay, 14-3-3 at 300 µM [12] was 25% and the “stoichiometry N” value [13] was 2. For the same molecule, the fold decrease in binding affinity with MLi-2 against no inhibitor [14] was 2 fold and the inhibition of Rab10 phosphorylation by LRRK2 in an in vitro kinase assay, 14-3-3 from 0 to 300 µM [15] was 50%.

B5: N-terminal His-tagged 14-3-3γ (Uniprot P61981), P61981 1-247 (natural protein)
chain: MVDREQLVQKARLAEQAERYDDMAAAMKNVTELNEPLSNEERNLLSVAYKNVVGARRSSWRVISSIEQKTSADGNEKKIEMVRAYREKIEKELEAVCQDVLSLLDNYLIKNCSETQYESKVFYLKMKGDYYRYLAEVATGEKRATVVESSEKAYSEAHEISKEHMQPTHPIRLGLALNYSVFYYEIQNAPEQACHLAKTAFDDAIAELDTLNEDSYKDSTLIMQLLRDNLTLWTSDQQDDDGGEGNN
In the case of B5, the inhibition of Rab10 phosphorylation by LRRK2 in an in vitro kinase assay, 14-3-3 at 300 µM [16] is reported as 25%, the inhibition of Rab10 phosphorylation by LRRK2 in an in vitro kinase assay, 14-3-3 at 300 µM [17] is reported as 25% and the inhibition of Rab10 phosphorylation by LRRK2 in an in vitro kinase assay, 14-3-3 at 300 µM [18] is reported as 25%. It also gave a reduction of the 14-3-3 mediated inhibition of LRRK2 kinase activity [19] of 30%, a reduction of the inhibition of LRRK2 kinase activity by 14-3-3 compared to WT [20] of 20% and a reduction of the inhibition of LRRK2 kinase activity by 14-3-3 compared to WT [21] of 20%.
